Test results: article PMC6877725, “Identification of the periplasmic DNA receptor for natural transformation of Helicobacter pylori”

Key:
ComH-His6 [1] = biological target: T1, ComH-His6 (Helicobacter pylori 26695, UniProt O26055 20-479); assay: SV-AUC; conditions: EMSA: 10 mM Tris-HCl pH 7.5, 50 mM KCl, ~100 mM NaCl, 0.1 mM MgCl2, 1 mM DTT, 0.1 µg/µl BSA, on ice 30 min; MST and SV-AUC (20 °C): 50 mM Tris-HCl pH 7.4 …
T1 sequence: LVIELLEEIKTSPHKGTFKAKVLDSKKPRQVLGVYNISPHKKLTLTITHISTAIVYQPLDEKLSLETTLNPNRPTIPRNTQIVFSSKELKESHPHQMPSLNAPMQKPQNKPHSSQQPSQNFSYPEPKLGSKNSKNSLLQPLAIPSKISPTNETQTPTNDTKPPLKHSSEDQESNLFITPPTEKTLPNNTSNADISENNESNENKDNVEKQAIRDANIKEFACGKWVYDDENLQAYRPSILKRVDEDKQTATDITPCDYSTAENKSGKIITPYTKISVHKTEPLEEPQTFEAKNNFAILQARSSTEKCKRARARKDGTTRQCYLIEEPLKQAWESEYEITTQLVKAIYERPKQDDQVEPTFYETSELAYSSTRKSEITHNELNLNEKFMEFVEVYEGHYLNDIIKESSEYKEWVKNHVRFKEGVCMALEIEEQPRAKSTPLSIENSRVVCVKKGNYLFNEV

ComH-CTD-His6 [2] = biological target: T2, ComH-CTD-His6 (Helicobacter pylori 26695, UniProt O26055 170-479); assay: MST; conditions: 10 mM MgCl2, 150 mM NaCl; EMSA: 10 mM Tris-HCl pH 7.5, 50 mM KCl, ~100 mM NaCl, 0.1 mM MgCl2, 1 mM DTT, 0.1 µg/µl BSA, on ice 30 min; MST and SV-AUC (20 °C): 50 mM Tris-HCl pH 7.4 …
T2 sequence: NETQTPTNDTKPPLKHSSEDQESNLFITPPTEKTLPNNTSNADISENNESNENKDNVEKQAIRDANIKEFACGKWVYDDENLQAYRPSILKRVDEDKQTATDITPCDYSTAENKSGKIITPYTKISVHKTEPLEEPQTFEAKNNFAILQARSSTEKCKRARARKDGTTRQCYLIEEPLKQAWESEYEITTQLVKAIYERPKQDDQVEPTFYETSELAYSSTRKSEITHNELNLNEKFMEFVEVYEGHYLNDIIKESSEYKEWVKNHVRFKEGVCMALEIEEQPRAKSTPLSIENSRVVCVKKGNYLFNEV

ComH-NTD-His6 [3] = biological target: T3, ComH-NTD-His6 (Helicobacter pylori 26695, UniProt O26055 20-169); assay: MST; conditions: 10 mM MgCl2, 150 mM NaCl; EMSA: 10 mM Tris-HCl pH 7.5, 50 mM KCl, ~100 mM NaCl, 0.1 mM MgCl2, 1 mM DTT, 0.1 µg/µl BSA, on ice 30 min; MST and SV-AUC (20 °C): 50 mM Tris-HCl pH 7.4 …
T3 sequence: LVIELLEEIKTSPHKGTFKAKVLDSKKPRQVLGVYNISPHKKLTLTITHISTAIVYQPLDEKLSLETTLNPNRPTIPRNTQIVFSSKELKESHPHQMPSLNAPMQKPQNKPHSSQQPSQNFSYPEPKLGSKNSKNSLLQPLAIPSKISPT

ComH-His6 [4] = biological target: T1, ComH-His6; assay: MST; conditions: 10 mM MgCl2, 150 mM NaCl; EMSA: 10 mM Tris-HCl pH 7.5, 50 mM KCl, ~100 mM NaCl, 0.1 mM MgCl2, 1 mM DTT, 0.1 µg/µl BSA, on ice 30 min; MST and SV-AUC (20 °C): 50 mM Tris-HCl pH 7.4 …
ComH-His6 [5] = biological target: T1, ComH-His6; assay: SV-AUC; conditions: EMSA: 10 mM Tris-HCl pH 7.5, 50 mM KCl, ~100 mM NaCl, 0.1 mM MgCl2, 1 mM DTT, 0.1 µg/µl BSA, on ice 30 min; MST and SV-AUC (20 °C): 50 mM Tris-HCl pH 7.4 …; remark: listed apart in the source
ComH-CTD-His6 [6] = biological target: T2, ComH-CTD-His6; assay: EMSA; 0.5-2 µM protein; EMSA: 10 mM Tris-HCl pH 7.5, 50 mM KCl, ~100 mM NaCl, 0.1 mM MgCl2, 1 mM DTT, 0.1 µg/µl BSA, on ice 30 min; MST and SV-AUC (20 °C): 50 mM Tris-HCl pH 7.4, 150 mM NaCl, 10 mM MgCl2, 0.05% Tween20; SPR: PBS + 0.005% Tween20, 25 °C; conditions: protein: recombinant; tags: C-terminal His6; label: 5'-Cy5 on strand 1; blunt
ComH-His6 [7] = biological target: T1, ComH-His6; assay: as above; conditions: protein: recombinant, tags: C-terminal His6
ComH-NTD-His6 [8] = biological target: T3, ComH-NTD-His6; assay: EMSA; basically no binding, 0.5-2 µM protein; EMSA: 10 mM Tris-HCl pH 7.5, 50 mM KCl, ~100 mM NaCl, 0.1 mM MgCl2, 1 mM DTT, 0.1 µg/µl BSA, on ice 30 min; MST and SV-AUC (20 °C): 50 mM Tris-HCl pH 7.4, 150 mM NaCl, 10 mM MgCl2, 0.05% Tween20; SPR: PBS + 0.005% Tween20, 25 °C; conditions: protein: recombinant, tags: C-terminal His6
ComH-His6 [9] = biological target: T1, ComH-His6; assay: SPR; no satisfactory fit; EMSA: 10 mM Tris-HCl pH 7.5, 50 mM KCl, ~100 mM NaCl, 0.1 mM MgCl2, 1 mM DTT, 0.1 µg/µl BSA, on ice 30 min; MST and SV-AUC (20 °C): 50 mM Tris-HCl pH 7.4, 150 mM NaCl, 10 mM MgCl2, 0.05% Tween20; SPR: PBS + 0.005% Tween20, 25 °C; conditions: protein: recombinant; tags: C-terminal His6; label: 5'-biotin on strand 1; blunt
ComH-CTD-His6 [10] = biological target: T2, ComH-CTD-His6; assay: EMSA; essentially no affinity, 0.5-2 µM protein; EMSA: 10 mM Tris-HCl pH 7.5, 50 mM KCl, ~100 mM NaCl, 0.1 mM MgCl2, 1 mM DTT, 0.1 µg/µl BSA, on ice 30 min; MST and SV-AUC (20 °C): 50 mM Tris-HCl pH 7.4, 150 mM NaCl, 10 mM MgCl2, 0.05% Tween20; SPR: PBS + 0.005% Tween20, 25 °C; conditions: protein: recombinant; tags: C-terminal His6; label: 5'-Cy5
[11] = label: 5'-Cy5 on strand 1, blunt

With 18 bp dsDNA-FAM the Kd (ComH-His6 [1]) was 300 nM, the Kd (ComH-CTD-His6 [2]) was 3400 nM and the Kd (ComH-NTD-His6 [3]) was > 40000 nM. It also gave a Kd (ComH-His6 [4]) of 50 nM and a Kd (ComH-His6 [5]) of 100 nM.

B1: 18 bp dsDNA (Cy5-PNK1 + cPNK1) (dsDNA)
DNA 1: TAGCATCGATCAGTCCTC
DNA 2: GAGGACTGATCGATGCTA
B1: binds (ComH-CTD-His6 [6]); binds (ComH-His6 [7]; [11]); no binding (ComH-NTD-His6 [8]; [11]).

B2: 50 bp dsDNA (Op249 + Op250) (dsDNA)
DNA 1: GTAGTGCTGTAGGAGAATATACGGGCTGCTCGTGTTGACAAGTACTGATG
DNA 2: CATCAGTACTTGTCAACACGAGCAGCCCGTATATTCTCCTACAGCACTAC
B2: binds (ComH-His6 [9]).

TAGCATCGATCAGTCCTC (ssDNA) [18-mer ssDNA (Cy5-PNK1)]: no binding (ComH-His6 [7]; label: 5'-Cy5); no binding (ComH-CTD-His6 [10]); no binding (ComH-NTD-His6 [8]; label: 5'-Cy5).
